For test [1], the target named is T1, human EGFR (human, UniProt P00533 25-1210). The test can be described thus: flow cytometry competition on A431 cells; competitor: 10 nM biotinylated TGFα.
For test [2], the target named is T1, human EGFR. As to the kind of experiment: cell-based or functional assay.
Test [3] has as its target T1, human EGFR. The test can be described thus: cell-based or functional assay. This is another data set of the same source.
The target of test [4] is T1, human EGFR. As to the kind of experiment: flow cytometry competition on MDA-MB468 cells; competed: 0.2 nM biotinylated cetuximab; streptavidin-Alexa 488 detection.
Protocol: (§1) To distinguish binding epitopes of anti-EGFR antibodies, antibody binding competition assays were done using flow cytometry. […] In brief, the biotinylated antibody was pre-mixed with varying concentration of ‘competing’ antibodies. The antibody mixture was then incubated with cells on ice for 2h. […] After washing, the cells were fixed and analyzed in FACScalibur. The geometric mean fluorescence intensity was plotted against antibody concentration in semi-log plot and normalized so that 100% represents the maximal binding of the biotinylated antibody in absence of other antibody and 0% represents the background staining in absence of the biotinylated antibody.
Test [5] concerns the target T2, huEGFRdIII-Fc (human; murine, UniProt P00533 334-525).
T2 construct: range 310-501; Residue numbers count on the mature receptor, not on the precursor; also called human EGFR domain III; not shown: murine IgG2A hinge, CH2, and CH3 region
The test can be described thus: ELISA on the EGFR ECD-Fc construct (A450).

The target in test [6] is T3, chEGFRdIII-Fc (murine; human, UniProt Q01279 334-483; P00533 484-505; Q01279 506-525).
T3 construct: range 310-459;range 460-481;range 482-501; the split into three pieces follows from that; also called human/murine EGFR chimera; not shown: murine IgG2A hinge, CH2, and CH3 region
As to the kind of experiment: ELISA on the EGFR ECD-Fc construct (A450).

The target in test [7] is T4, huEGFR-Fc (human; murine, UniProt P00533 25-645).
T4 construct: extracellular domain; also called human EGFR ECD Fc fusion; wild type human EGFR; not shown: murine IgG2A hinge, CH2, and CH3 region (pmuFc2ANL vector)
The test can be described thus: ELISA on the EGFR ECD-Fc construct (A450).

The target in test [8] is T1, human EGFR. The test can be described thus: flow cytometry competition on MDA-MB468 cells; competed: 0.3 nM biotinylated 528 antibody; streptavidin-Alexa 488 detection.
Protocol: as §1
Test [9] deals with T1, human EGFR. As to the kind of experiment: cell-based or functional assay. This is another data set of the same source.
The target of test [10] is T5, muEGFRdIII-Fc (murine, UniProt Q01279 334-525).
T5 construct: range 310-501; Residue numbers count on the mature receptor, not on the precursor; also called murine EGFR domain III; not shown: murine IgG2A hinge, CH2, and CH3 region
The test can be described thus: ELISA on the EGFR ECD-Fc construct (A450).

The target in test [11] is T2, huEGFRdIII-Fc. The test can be described thus: ELISA on the EGFR ECD-Fc construct (A450). The source holds these as a separate data set.
The target in test [12] is T3, chEGFRdIII-Fc. The test can be described thus: ELISA on the EGFR ECD-Fc construct (A450). This is another data set of the same source.
Test [13] has as its target T4, huEGFR-Fc. As to the kind of experiment: ELISA on the EGFR ECD-Fc construct (A450). This is another data set of the same source.
Test [14] has as its target T1, human EGFR. As to the kind of experiment: flow cytometry competition on A431 cells; competitor: 1.8 nM biotinylated EGF.
Protocol: To examine if the EGFR antibodies inhibit the ligand binding to the EGFR, the binding of biotinylated EGFR ligand to the A431 cells was measured by flow cytometry in the presence of anti-EGFR antibodies. […] Prior to competition assay, the binding curve of the biotinylated ligands was established. […] Cells were then washed twice with FACS buffer and incubated with streptavidin-APC conjugate (Jackson Immunoresearch) for 15 min on ice. Cells were washed twice with FACS buffer and analyzed in FACS Calibur (BD Bioscience) using FlowJo program (Tree Star). The geometric mean fluorescence intensities were plotted against the antibody concentration in a semi-log plot.
For test [15], the target named is T5, muEGFRdIII-Fc. As to the kind of experiment: ELISA on the EGFR ECD-Fc construct (A450). This is another data set of the same source.
The target of test [16] is T2, huEGFRdIII-Fc. The test can be described thus: ELISA on the EGFR ECD-Fc construct (A450). This is another data set of the same source.
Test [17] has as its target T3, chEGFRdIII-Fc. The test can be described thus: ELISA on the EGFR ECD-Fc construct (A450). This is another data set of the same source.
Test [18] concerns the target T4, huEGFR-Fc. The test can be described thus: ELISA on the EGFR ECD-Fc construct (A450). This is another data set of the same source.

Like-named read-outs stand apart in the source and are kept apart here.

In turn, TGFα (ligand) registered an EC50 in the test with human EGFR [1] of 1.34 nM.

B1: muEGFR-7 antibody (antibody, V domains shown)
VH: QVQLQQSGAELARPGASVKLSCKASGYTFTSYWMQWVKQRPGQGLECIGTIYPGDGDTTYTQKFKGKATLTADKSSSTAYMQLSSLASEDSAVYYCARYDAPGYAMDYWGQGTSVTVSS
VL: DIQMTQSPSSLSASLGGKVTITCKASQDINNYLAWYQHKPGKGPRLLIHYTSTLHPGIPSRFSGSGSGRDYSFSISNLEPEDIATYYCLQYDNLLYTFGGGTKLEIKR
notes: Murine hybridoma antibody (ATCC PTA-11332)
For B1, the “EC50 (nM), anti-proliferative activity in NCI-H292 cells” value was found to be 0.21 nM with human EGFR [2] and 0.4 nM with human EGFR [3]. The “IC50 (read off the curve)” value with human EGFR [4] and in the test with human EGFR [8] was roughly 2 nM each time. For the same molecule, the figures for the EC50 with huEGFRdIII-Fc [5], with chEGFRdIII-Fc [6] and with huEGFR-Fc [7] were 0.043 nM, 0.294 nM and 0.0328 nM, respectively. Moreover, the “EC50 (nM), anti-proliferative activity in HCC827 cells” value (“EC50 (nM) … in HCC827 cells” for short) in the test with human EGFR [9] is 0.03 nM. Moreover, the “Maximal inhibition (%), HCC827 cells” value with human EGFR [9] came out at 72%.

B2: muEGFR-12 antibody (antibody, V domains shown)
VH: QVQLQQSGTELARPGASVKLSCKASGYTFTSYWMQWVKQRPGQGLECIGTIYPGDGDTRYIQKFKGKATLTADKSSSTAYMQLSSLASEDSAVYYCARYDAPGYAMDYWGQGTSVTVSS
VL: DVQITQSPSYLAASPGETITINCRASKSISKYLAWYQEKPGKTNKLLIYSGSTLQSGIPSRFSGSGSGTDFTLTISSLEPEDFAMYYCQQHNEYPWTFGGGTKLEIK
notes: Murine hybridoma antibody (ATCC PTA-11333)
For B2, the binding result in the test with muEGFRdIII-Fc [10] was “no binding (tested: 10^-7 M)”. In addition, the EC50 stood at 0.0572 nM with huEGFRdIII-Fc [11]; 1.24 nM in the test with chEGFRdIII-Fc [12]; 0.0485 nM with huEGFR-Fc [13]; 1.34 nM with human EGFR [1]; 2.93 nM with human EGFR [14]. Also, the “IC50 (read off the curve)” value with human EGFR [4] and in the test with human EGFR [8] was roughly 2 nM in each case. Further, the “EC50 (nM) … in HCC827 cells” value with human EGFR [9] was 0.7 nM. Moreover, in the test with human EGFR [9], the “Maximal inhibition (%), HCC827 cells” value amounted to 63%.

B3: muEGFR-6 antibody (antibody, V domains shown)
VH: QVQLQQSGAELARPGASVKLSCKASGYTFTSYWMQWVKQRPGQGLECIGALYPGDGDARYTQKFKGKATLTADRSSSTAYMQLSSLASEDSAVYYCARYDAPGYAMDYWGQGTSVTVAS
VL: DIQMTQSPSSLSASLGGKVTITCKASQDINNYIAWYQHKPGKGPRLLIHYTSTLHPGIPSRFSGSGSGRDYSFSISNLEPEDIATYYCLQYDNLLYTFGGGTKLEIKR
notes: Murine hybridoma antibody (ATCC PTA-11331)
Take B3: the “EC50 (nM), anti-proliferative activity in NCI-H292 cells” value is 2.59 nM with human EGFR [2] and 5.6 nM with human EGFR [3]. The “IC50 (read off the curve)” value with human EGFR [4] and with human EGFR [8] was roughly 2 nM in each case. For the same molecule, the binding result with muEGFRdIII-Fc [15] was “no binding (tested: 10^-7 M)”. Besides, the EC50 with huEGFRdIII-Fc [16] was determined as 0.0694 nM; in the test with chEGFRdIII-Fc [17] it was 0.867 nM; in the test with huEGFR-Fc [18], 0.0484 nM; with human EGFR [1], 1.18 nM; with human EGFR [14], 2.55 nM. In addition, the “EC50 (nM) … in HCC827 cells” value with human EGFR [9] amounted to 0.3 nM. In addition, the “Maximal inhibition (%), HCC827 cells” value with human EGFR [9] came to 72%.

Source of the values: patent publication US20140099308A1 (IMMUNOGEN, published 2014).
